How the values were obtained:
[1] = target: T1, Histidine-tagged human Siglec-5 (NovoProtein) (human, UniProt O15389 17-434, limits assumed); test: array SPR, antibody immobilized, His-tagged human Siglec-5 (0-500 nM) in solution; apparent affinity
T1 construct: Bought soluble protein; also called His-tagged human Siglec-5; not shown: histidine tag
T1 sequence: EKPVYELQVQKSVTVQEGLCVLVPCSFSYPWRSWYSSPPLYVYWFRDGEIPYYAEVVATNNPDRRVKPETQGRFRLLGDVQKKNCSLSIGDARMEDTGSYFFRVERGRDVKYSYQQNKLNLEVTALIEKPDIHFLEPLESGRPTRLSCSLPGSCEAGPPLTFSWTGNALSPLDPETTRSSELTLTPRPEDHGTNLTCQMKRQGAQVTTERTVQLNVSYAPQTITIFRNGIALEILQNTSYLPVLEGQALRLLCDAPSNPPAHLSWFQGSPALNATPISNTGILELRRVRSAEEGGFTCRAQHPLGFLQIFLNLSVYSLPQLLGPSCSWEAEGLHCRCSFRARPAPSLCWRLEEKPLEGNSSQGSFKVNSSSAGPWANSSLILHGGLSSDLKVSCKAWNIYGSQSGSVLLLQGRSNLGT
Protocol: The apparent binding affinities of the anti-Siglec-5 antibodies were measured by array surface plasmon resonance (SPR), according to standard techniques (Abdiche, et al. (2016) MAbs 8:264-277). Briefly, anti-Siglec-5 antibodies were immobilized on a HC 30M chip at four different densities, at antibody concentration of 10 μg/mL, 2.5 μg/mL, 0.63 μg/mL, and 0.16 μg/mL. Varying concentrations (0-500 nM) of Histidine-tagged human Siglec-5 or cynomolgus Siglec-5 (NovoProtein) were then bound to the captured anti-Siglec-5 surface (5 min injection time, 15 min dissociation time) in HBS-EP⁺/1 mg/mL BSA running buffer. Kinetic analysis was performed using Carterra software to extract association and dissociation rate constants (kₐ and kd, respectively) for each antibody. Apparent affinity constants (KD) were calculated from the ratio kd/kₐ. None of the anti-Siglec-5 antibodies bound to cynomolgus Siglec-5 protein.

[2] = target: T2, human Siglec-14 (human, UniProt Q08ET2 17-396); test: FACS, CHO cells stably transfected with human Siglec-14 (CHO-S14), fluorescent secondary antibody; y-axis Binding (Fold over background); antibody concentration not shown
T2 construct: also called CHO-S14; CHO-S hSiglec-14
T2 sequence: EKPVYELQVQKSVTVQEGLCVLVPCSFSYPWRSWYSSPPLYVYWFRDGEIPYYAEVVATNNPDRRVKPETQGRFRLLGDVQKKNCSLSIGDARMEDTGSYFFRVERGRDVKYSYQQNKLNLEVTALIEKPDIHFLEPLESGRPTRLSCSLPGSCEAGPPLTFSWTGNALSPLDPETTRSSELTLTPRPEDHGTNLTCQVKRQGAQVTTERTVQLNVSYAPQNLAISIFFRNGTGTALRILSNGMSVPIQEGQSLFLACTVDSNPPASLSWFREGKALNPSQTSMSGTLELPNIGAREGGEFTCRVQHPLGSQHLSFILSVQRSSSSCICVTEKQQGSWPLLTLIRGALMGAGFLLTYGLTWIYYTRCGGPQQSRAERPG
Protocol: The anti-Siglec-5 antibodies were evaluated for their ability to bind to CHO cells which were stably transfected with human Siglec-5 (CHO-S5) or human Siglec-14 (CHO-S14). The anti-Siglec-5 antibodies were also evaluated for their ability to bind to primary human neutrophils. Cells were incubated with various dilutions of the anti-Siglec-5 antibodies for 30 minutes on ice in the dark, followed by a 30-minute incubation with a fluorescently-conjugated anti-human IgG secondary antibody. Cells were washed twice in FACS buffer (PBS+2% FBS, 2 mM EDTA), and flow cytometry was performed on a BD FACS Canto. Data were analyzed using FlowJo software (Ashland, Oreg.). In the figures, “hIgG1” and “mIgG1” refer to isotype control antibodies, and “S5/14 1A5” refers to a commercially available antibody that binds both Siglec-5 and Siglec-14 (BioLegend, clone 1A5).

[3] = target: T2, human Siglec-14; test: FACS titration, CHO-S hSiglec-14 cells, anti-human IgG secondary; y-axis Fold over isotype, x-axis Antibody (nM), log scale; the same flat line on CHO-S Parental cells
Protocol: (§1) CHO cells were incubated with increasing concentrations of anti-Siglec-5 antibody, as indicated on the x-axis of each plot. The binding of anti-Siglec-5 antibodies to the surface of CHO cells was then measured by FACS. The y-axis provides the binding of each indicated anti-Siglec-5 antibody to the surface of CHO cells relative to hIgG1 isotype control antibodies. S5-174-H2L1 refers to antibody S5-174-H3; S5-174-H3L1 refers to antibody S5-174-H5; S5-174-H3L2 refers to antibody S5-174-H6; S5-174-H4L1 refers to antibody S5-174-H7; S5-174-H4L2 refers to antibody S5-174-H8; S5-G03-H2L1 refers to antibody S5-G-03-H4; S5-G03-H2L2 refers to antibody S5-G-03-H5; S5-G03-H3L1 refers to antibody S5-G-03-H7; S5-G03-H3L2 refers to antibody S5-G-03-H8; and S5-G03-H3L3 refers to antibody S5-G-03-H9.
(§2) Various anti-Siglec-5 antibodies of the present disclosure were evaluated for their ability to bind to CHO cells which were stably transfected with human Siglec-5 (CHO-S5) or human Siglec-14 (CHO-S14). Cells were incubated with various dilutions of anti-Siglec-5 antibodies for 30 minutes on ice in the dark, followed by a 30-minute incubation with a fluorescently conjugated anti-human IgG secondary antibody. Cells were then washed twice in FACS buffer (PBS+2% FBS, 2 mM EDTA), and flow cytometry was performed on a BD FACS Canto. Data were analyzed using FlowJo software (Ashland, Oreg.). In FIG. 9, hIgG1 refers to isotype control antibodies; S5-174-H2L1 refers to antibody S5-174-H3; S5-174-H3L1 refers to antibody S5-174-H5; S5-174-H3L2 refers to antibody S5-174-H6; S5-174-H4L1 refers to antibody S5-174-H7; S5-174-H4L2 refers to antibody S5-174-H8; S5-G03-H2L1 refers to antibody S5-G-03-H4; S5-G03-H2L2 refers to antibody S5-G-03-H5; S5-G03-H3L1 refers to antibody S5-G-03-H7; S5-G03-H3L2 refers to antibody S5-G-03-H8; and S5-G03-H3L3 refers to antibody S5-G-03-H9.

[4] = target: T3, human Siglec-5 (human, UniProt O15389 17-551); test: FACS titration, CHO-S hSiglec-5 cells, anti-human IgG secondary; y-axis Fold over isotype, x-axis Antibody (nM), log scale
T3 construct: also called CHO-S5; CHO-S hSiglec-5
T3 sequence: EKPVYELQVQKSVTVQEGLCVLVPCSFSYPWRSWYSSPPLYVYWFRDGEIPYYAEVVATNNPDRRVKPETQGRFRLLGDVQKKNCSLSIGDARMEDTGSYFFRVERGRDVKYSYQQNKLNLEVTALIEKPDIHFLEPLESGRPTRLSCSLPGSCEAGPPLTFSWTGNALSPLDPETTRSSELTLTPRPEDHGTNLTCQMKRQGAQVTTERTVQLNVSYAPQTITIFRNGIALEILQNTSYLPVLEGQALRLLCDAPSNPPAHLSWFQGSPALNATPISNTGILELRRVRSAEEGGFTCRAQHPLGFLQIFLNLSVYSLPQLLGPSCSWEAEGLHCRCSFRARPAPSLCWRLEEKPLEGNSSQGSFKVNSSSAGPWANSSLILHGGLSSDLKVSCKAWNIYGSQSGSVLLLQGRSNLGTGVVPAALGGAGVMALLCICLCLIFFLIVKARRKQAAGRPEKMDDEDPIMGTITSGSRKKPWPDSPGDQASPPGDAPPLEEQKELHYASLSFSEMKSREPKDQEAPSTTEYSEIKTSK
Protocol: as §1, §2

Binder | Kd [1] [nM] | koff [1] [s⁻¹] | kon [1] [M⁻¹ s⁻¹] | binding result [2] | binding result [3] | binding result [4]
S5-G-10 (antibody, V domains shown, Mouse-derived variable domains; expressed in mammalian cells as full antibody; hIgG1 isotype control) VH: QAYLQQSGAELVKPGASVKLSCKASGYIFTEYTIHWVKQRSGQGLEWIGWFYPGSGSIKYNEKFKDKATLTADKSSSTVYMELSRLTSEDSAVYFCATHERAAQAAWSAYWGQGTLVTVSA VL: DVQMNQSPASLSASVGETVTITCRASGNIHNYLAWYQQKQGKSPQLLVYNAKTLTDGVPSRFSGSGSGTQYSLKINTLQPEDFGSYYCQHFWSTPYTFGGGTKLEMK | 79 | 0.00068 | 8600 | no binding |  | 
S5-174 (antibody, V domains shown, Mouse-derived variable domains; expressed in mammalian cells as full antibody; hIgG1 isotype control) VH: QAYLQQSGAELVKPGTSVKLSCKASGYTFTNYWMHWVKQRPGQGLEWVGEIDPSDGYVTYNQNFKGKATLTVDRSSSTAYMQLSSLTSEDSAVYYCAGVYYGNSIYYAMDYWGQGTSVTVSS VL: DIQMTQTRNFMSTSVGDRVNITCKATQDVGTAVAWYQVKPGQSPKLLIYWTSTRHTGVPDRFTGSGSGTDFTLTIKNVQSEDLADYFCQQYRSYPFTFGSGTKLEIK | 1.7 | 0.00043 | 250000 | no binding |  | 
S5-175 (antibody, V domains shown, Mouse-derived variable domains; expressed in mammalian cells as full antibody; hIgG1 isotype control) VH: QAYLQQSGAVLARPGASVRMSCKASGYSFTSYYMHWVKQRPGQGLEWIGAIYPGNSDTSYNQKFKGKAKLTAVTSASTAYMEVSSLTNEDSAVYYCTPLVRPRPYGMDYWGQGTSVTVSS VL: DVVLTQSTSSLSASLGDRVTISCRASQDISNYLNWYQQKPDGTVKLLIYYTSRLHSGVPSRFSGSGSGTDYSLTISNLEQEDIATYFCQQGNTLPWTFGGGTKLEIK | 15 | 0.00045 | 29000 | no binding |  | 
S5-G-03-H9 (antibody, V domains shown, Humanized variant of S5-G-03; also called S5-G03-H3L3) VH: EVQLLQSGGGLVQPGGSLRLSCAASGFTFSTYGMSWVRQAPGKGLELVATINSNGDNTYYADSVKGRFTISRDNSKNTLYLQMNSLRAEDTAVYYCARAWPSITTVFAPYTLDYWGQGTLVTVSS VL: DIQLTQSPSSLSASVGDRVTMTCRASSSVSSSFLHWYQQKPGKAPKLWIYSTSNLASGVPSRFSGSGSGTDYTLTISSVQPEDFATYYCQQYSGYPLTFGQGTKLEIK |  |  |  |  | no binding (tested: last point between 1 and 10 nM) | binds
S5-G-07 (antibody, V domains shown, Mouse-derived variable domains; expressed in mammalian cells as full antibody; hIgG1 isotype control; also called SG-5-07) VH: QAYLQQSGAELARPGASVKMSCKASGYTFSSYTMYWVKQRPGQGLEWIGYINPSSGYTEYNQKFKDKATLTADKSSSTAYMQLISLTSEDSAVYYCARSDSKGDYWGQGTTLTVSS VL: DVVMTQSPSSLSASLGERVSLTCRASQDIGNSLNWLQQEPDGTIKRLISATSSLDSGVPKRFSGSRSGSDYSLTISSLESEDFVDYYCLQYASSPLTFGAGTKLELK | ≤ 0.42 | ≤ 1e-05 | 24000 | no binding |  | 
S5-172 (antibody, V domains shown, Mouse-derived variable domains; expressed in mammalian cells as full antibody; hIgG1 isotype control) VH: QAYLQQSGPELVKPGASVKVSCKASGYSLTDYNMYWVKQSHGKSLEWIGYIDSYNGGTRYNQKFKGKATLTVDKSSSTAFMHLNSLTSEDSAVYYCAREGFGYDDREWFAYWGQGTLVTVSA VL: DIVLTQTPLSLAVSVGEKVTMNCKSSQSLLYSTNQMTFLAWYQQKPGQSPKLLIYWASTRESGVPDRFTGSGSGTDFTLTISSVKAEDLAIYYCQQFYTYPFTFGSGTKLEIR | 1.5 | 0.00053 | 350000 | no binding |  | 
S5-176 (antibody, V domains shown, Mouse-derived variable domains; expressed in mammalian cells as full antibody; hIgG1 isotype control) VH: QAYLQQSGPELVKPGASVKVSCKASGYSFTDYNIYWVKQSHGKSLEWIGYFDPYNGGTNYNQRFKDKATLTVDKSSSTAFMQLNSLTSEDSAVYYCAREGYGYDDREWFAYWGQGTLVTVSA VL: DIVMTQSPSSLAASVGEKVTMSCKSSQSLLYSTNQMTYLAWYQQKPGQSPKLLIFWASTRESGVPDRFTGSGSGTDFTLTISSVKAEDLAVYYCHQFYSYPFTFGSGTRWEIK | 1.1 | 0.00051 | 470000 | no binding |  | 
S5-190 (antibody, V domains shown, Mouse-derived variable domains; same VH entry as S5-172; expressed in mammalian cells as full antibody; hIgG1 isotype control) VH: QAYLQQSGPELVKPGASVKVSCKASGYSLTDYNMYWVKQSHGKSLEWIGYIDSYNGGTRYNQKFKGKATLTVDKSSSTAFMHLNSLTSEDSAVYYCAREGFGYDDREWFAYWGQGTLVTVSA VL: DIQMTQTPSSLAVSVGEKVTLSCKSSQSLLYSTNQMNFLAWYQQKPGQSPKLLIYWASTRESGVPDRFAGSGSGTDFTLTISSVKAEDLAVYYCQQFYSYPFTFGSGTELEIK | 0.85 | 0.00046 | 540000 | no binding |  | 

Reference: patent publication US20210395361A1 (Alector, published 2021)
